As a reminder, the EC50 is the concentration giving half of the maximal effect.

Test [1] deals with T1, human GLP-1 receptor (hGLP-1r) (Homo sapiens, UniProt P43220).
T1 construct: expressed in transfected cells
Put plainly: BSA-cAMP assay, cells expressing human GLP-1 receptor. Type of test: cell-based. The note with it: BSA-cAMP assay; batch 1 unless a batch is given; read-out: cAMP activity hGLP1r (EC50). On the procedure:
(§1) One basic cAMP assays was performed, differing in the medium used for the assay, the “BSA-cAMP assay”:
(§2) BSA-based assay medium: 0.1% bovine serum albumin (BSA) in
(§3) In certain aspects, the assay can also be carried out in medium supplemented with serum albumin that corresponds to the receptor being tested, e.g., human serum albumin for testing cAMP activity at hGIPr or hGLP-1r, rat serum albumin for testing cAMP activity at rGIPr or rGLP-1r, and so on. […] All sample dilutions were made in duplicate.
(§4) A frozen cryo-vial of cells expressing the receptor of interest was thawed rapidly in a water-bath, transferred to pre-warmed assay media and spun at 240×g for 5 minutes. Cells were re-suspended in assay buffer at an optimized concentration (e.g., hGLP-1r and hGIPr cells at 0.5×10^5 cells/ml).
(§5) To this, 5 μL cell suspension was added and the plates incubated at room temperature for 30 minutes.
(§6) cAMP levels were measured using a commercially available cAMP dynamic 2 HTRF kit (Cisbio, Cat #62AM4PEJ), following the two step protocol as per manufacturer's recommendations. In brief; anti-cAMP cryptate (donor fluorophore) and cAMP-d2 (acceptor fluorophore) were made up separately by diluting each 1/20 in conjugate & lysis buffer provided in the kit. 5 μL anti-cAMP cryptate was added to all wells of the assay plate, and 5 μL cAMP-d2 added to all wells except non-specific binding (NSB) wells, to which conjugate and lysis buffer was added. […] Data was transformed to % Delta F as described in manufacturer's guidelines and then transformed to percent activation of maximal native agonist response and analysed by 4-parameter logistic fit to determine EC50 values.
(§7) We used unconstrained 4 parameter logistic fit of data, curve mid-point to determine EC50. This was tested on two occasions, not two batches.
On the technique in general: Changes in cAMP serve as a functional read-out for many G protein-coupled receptors.

The target in test [2] is T2, human GIP receptor (hGIPr) (Homo sapiens, UniProt P48546).
T2 construct: expressed in transfected cells
T2 sequence (P48546 22-466): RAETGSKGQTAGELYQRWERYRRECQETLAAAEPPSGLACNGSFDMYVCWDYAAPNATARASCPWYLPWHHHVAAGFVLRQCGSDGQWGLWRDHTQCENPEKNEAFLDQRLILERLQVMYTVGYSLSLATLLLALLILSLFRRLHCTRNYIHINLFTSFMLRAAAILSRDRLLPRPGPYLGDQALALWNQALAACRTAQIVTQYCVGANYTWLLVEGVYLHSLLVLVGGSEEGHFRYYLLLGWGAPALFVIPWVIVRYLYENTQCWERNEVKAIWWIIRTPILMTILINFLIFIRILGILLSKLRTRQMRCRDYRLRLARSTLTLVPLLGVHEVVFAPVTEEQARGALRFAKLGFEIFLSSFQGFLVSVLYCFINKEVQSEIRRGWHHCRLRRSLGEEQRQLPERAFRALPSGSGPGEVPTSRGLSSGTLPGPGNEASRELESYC
Put plainly: BSA-cAMP assay, cells expressing human GIP receptor. Format: cell-based. The note with it: BSA-cAMP assay; batch 1 unless a batch is given; read-out: cAMP activity hGIPr (EC50). How it is done: For human GIPr, two different lines were used, shown as “hGIPr” and “hGIPr (C3)” in Table 11.
as §1, §2, §3, §4, §5, §6, §7

T1 sequence (P43220 24-463): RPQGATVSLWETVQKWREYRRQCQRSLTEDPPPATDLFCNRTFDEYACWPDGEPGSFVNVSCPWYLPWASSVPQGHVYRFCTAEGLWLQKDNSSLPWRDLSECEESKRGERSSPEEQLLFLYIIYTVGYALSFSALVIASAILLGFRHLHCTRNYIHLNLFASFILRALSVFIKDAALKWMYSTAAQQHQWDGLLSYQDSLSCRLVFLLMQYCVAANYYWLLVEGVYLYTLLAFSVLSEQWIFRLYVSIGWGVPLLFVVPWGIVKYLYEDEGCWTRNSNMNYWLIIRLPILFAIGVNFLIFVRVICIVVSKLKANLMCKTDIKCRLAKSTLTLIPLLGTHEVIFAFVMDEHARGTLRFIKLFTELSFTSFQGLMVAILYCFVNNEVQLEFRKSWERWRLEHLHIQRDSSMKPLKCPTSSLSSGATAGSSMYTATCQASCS

B1: IP195 (protein)
chain: HGEGTFTSDVSSYLEGQAAKEFIAWLVKGAAAGGSGSTASSGSGSATGGGGESKYGPPCPPCPAPEF
modifications: /note=“Description of Artificial Sequence Synthetic Peptide-linker-hinge polypeptide”
Consider B1, for which the EC50 in test [1] came to 0.061 nM.

B2: IP132 (protein)
chain: HGEGTFTSDVSSYLEGQAAKEFIAWLVKGGGGGGSGGGGSGGGGSGGGGSATHTCPPCPAPEF
modifications: /note=“Description of Artificial Sequence Synthetic Peptide-linker-hinge polypeptide”
Regarding B2, the EC50 in test [1] amounted to 0.04 nM; in test [2], 81 nM.

B3: IP227 (protein)
chain: YSEGTFTSDVSSYMERQAIDEFVNDLLKGGAAAGGSGSTASSGSGSATGGGGAATHTCPPCPAPEF
modifications: /note=“Description of Artificial Sequence Synthetic Peptide-linker-hinge polypeptide”
B3: the concentration giving a half-maximal response (EC50) in test [1] was 48 nM.

B4: IP224 (protein)
chain: YSEGTFTSDVSSYMERQAIDEFIAWLLGGGAAAGGSGSTASSGSGSATGGGGAATHTCPPCPAPEF
modifications: /note=“Description of Artificial Sequence Synthetic Peptide-linker-hinge polypeptide”
Regarding B4, the figures for the EC50 in test [1] and in test [2] were 0.57 nM and 0.35 nM, respectively.

B5: IP176: Fc fusion, IgG1-TM, SEQ ID NO:143; agonist peptide YSEGTFTSDVSSYMERQAISEFIAWLLKGP (protein)
chain: YSEGTFTSDVSSYMERQAISEFIAWLLKGPAAAGGSGSTASSGSGSATGGGGAATHTCPPCPAPEF
modifications: also: Fc fusion, IgG1-TM
notes: agonist peptide YSEGTFTSDVSSYMERQAISEFIAWLLKGP
Regarding B5, the EC50 in test [1] is 0.6 nM; in test [2] it was 0.42 nM.

B6: IP187 (protein)
chain: HGEGTFTSDVSSYLEGQAAKEFIAWLVKGAPPGGGGGSGGGGSGGGGSGGGGSATHTCPPCPAPEF
modifications: /note=“Description of Artificial Sequence Synthetic Peptide-linker-hinge polypeptide”
Consider B6, for which the 50% effective concentration (EC50) was determined as 0.037 nM in test [1] and 540 nM in test [2].

B7: IP150: isolated polypeptide named in b21; sequence stands in a table not shown here (protein)
chain: YSEGTFTSDVSSYLEGQAAKEFIAWLVAGGAPPGGSGSTASSGSGSATGGGGAATHTCPPCPAPEF
modifications: /note=“Description of Artificial Sequence Synthetic Peptide-linker-hinge polypeptide”
For the molecule B7, the figures for the EC50 in test [1] and in test [2] were 0.033 nM and 16 nM, respectively.

B8: IP174: isolated polypeptide named in b21; sequence stands in a table not shown here (protein)
chain: HGEGTFTSDVSSYLEEEAAKEFIAWLVAGGAAAGGSGSTASSGSGSATGGGGAATHTCPPCPAPEF
modifications: /note=“Description of Artificial Sequence Synthetic Peptide-linker-hinge polypeptide”
Turning to B8, the 50% effective concentration (EC50) in test [1] is 0.032 nM; in test [2], 460 nM.

B9: IP197 (protein)
chain: YSEGTFTSDVSSYMERQAIDEFIAWLLAGAAAGGSGSTASSGSGSATGGGGAATHTCPPCPAPEF
modifications: /note=“Description of Artificial Sequence Synthetic Peptide-linker-hinge polypeptide”
For B9, the EC50 in test [1] turned out to be 0.78 nM; in test [2] it was 0.18 nM.

B10: IP171: Fc fusion, IgG1-TM, SEQ ID NO:142; agonist peptide YSEGTFTSDVSSYMERQAISEFIAWLLAG (protein)
chain: YSEGTFTSDVSSYMERQAISEFIAWLLAGAAAGGSGSTASSGSGSATGGGGAATHTCPPCPAPEF
modifications: also: Fc fusion, IgG1-TM
notes: agonist peptide YSEGTFTSDVSSYMERQAISEFIAWLLAG
For B10, the EC50 in test [1] is 0.53 nM; in test [2], 0.39 nM.

B11: IP208: isolated polypeptide named in b21; sequence stands in a table not shown here (protein)
chain: YSEGTFTSDVSSYLEGQAAKEFIAWLLAGAAAGGSGSTASSGSGSATGGGGAATHTCPPCPAPEF
modifications: /note=“Description of Artificial Sequence Synthetic Peptide-linker-hinge polypeptide”
For the molecule B11, the EC50 in test [1] stood at 1.6 nM; in test [2] it was 17 nM.

B12: IP173: isolated polypeptide named in b21; sequence stands in a table not shown here (protein)
chain: YSEGTFTSDVSSYLEEQAAKEFIAWLLAGAAAGGSGSTASSGSGSATGGGGAATHTCPPCPAPEF
modifications: /note=“Description of Artificial Sequence Synthetic Peptide-linker-hinge polypeptide”
Turning to B12, the EC50 in test [1] was found to be 0.23 nM; in test [2], 1.2 nM.

B13: IP199: isolated polypeptide named in b21; sequence stands in a table not shown here (protein)
chain: HGEGTFTSDVSSYLEGQAAKEFIAWLLAGAAAGGSGSTASSGSGSATGGGGAATHTCPPCPAPEF
modifications: /note=“Description of Artificial Sequence Synthetic Peptide-linker-hinge polypeptide”
As to B13, in test [1], the EC50 was 0.069 nM.

B14: IP233 (protein)
chain: HGEGTFTSDVSSYLEEQAAKEFIAWLVKGAAAGGSGSTASSGSGSATGGGGAATHTCPPCPAPEF
modifications: /note=“Description of Artificial Sequence Synthetic Peptide-linker-hinge polypeptide”
For the molecule B14, the EC50 in test [1] was determined as 0.036 nM.

B15: IP191 (protein)
chain: HGEGTFTSDVSSYLEGQAAKEFIAWLVKGAAAGGSGSTASSGSGSATGGGGAATYTCPPCPAPEF
modifications: /note=“Description of Artificial Sequence Synthetic Peptide-linker-hinge polypeptide”
In the case of B15, in test [1], the EC50 turned out to be 0.057 nM.

B16: IP192 (protein)
chain: HGEGTFTSDVSSYLEGQAAKEFIAWLVKGAAAGGSGSTASSGSGSATGGGGAATSTCPPCPAPEF
modifications: /note=“Description of Artificial Sequence Synthetic Peptide-linker-hinge polypeptide”
As for B16, the EC50 in test [1] turned out to be 0.043 nM.

B17: IP204: isolated polypeptide named in b21; sequence stands in a table not shown here (protein)
chain: HGEGTFISDYSIAMDKIHQQDFVNWLLAQKAAAGGSGSTASSGSGSATGGGGAATHTCPPCPAPEF
modifications: /note=“Description of Artificial Sequence Synthetic Peptide-linker-hinge polypeptide”
For B17, the figures for the EC50 in test [1] and in test [2] were 850 nM and 0.12 nM, respectively.

B18: IP194 (protein)
chain: HGEGTFTSDVSSYLEGQAAKEFIAWLVKGAAAGGSGSTASSGSGSATGGGGPPCPPCPAPEF
modifications: /note=“Description of Artificial Sequence Synthetic Peptide-linker-hinge polypeptide”
Take B18: the EC50 in test [1] worked out at 0.061 nM.

The values above are taken from US20160185837A1 (Medimmune Limited, priority 2013, published 2016).
